Data as given in the supplement of paper PMC6757056.
± gives the standard deviation of the averaged measurements.

B1: library; a variant is named by its letters at N, in order (parent)
chain: GCUGUCACCGGUGUAUUACCCUAGUGGUCGACCGGUCUGAUGAGUCUNNNNNNAGACGAAACAGC

Columns and labels:
[1] = variants of: B1; test: normalized RNA/DNA level with ligand (relative to sTRSVctl = 100) (log10 (% of sTRSVctl)); ligand: hypoxanthine (xanthine aptamer); higher = less ribozyme self-cleavage, higher mRNA level; details: ligand concentration (+) RNA-Seq: 5 mM, HEK293T, reporter: mCherry (pCS4076), ligand present: yes
Method in brief: (§1)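 Library plasmids encoding reporter-linked ribozyme switches (mCherry, or eGFP for some folinic acid experiments) were transfected into HEK293T at 4 µg per 6-well well. Ligand, when used, was added 1 h before transfection. Total RNA was extracted with EDTA 72 h later, then reverse-transcribed, amplified, barcoded and sequenced. RNA level was RNA reads over DNA reads, divided by a spiked-in non-cleaving control (or the top 25 sequences), ×100, log10; only sequences with ≥100 DNA reads were kept.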

[2] = variants of: B1; test: normalized RNA/DNA level without ligand (relative to sTRSVctl = 100) (log10 (% of sTRSVctl)); ligand: hypoxanthine (xanthine aptamer); higher = less ribozyme self-cleavage, higher mRNA level; details: HEK293T, reporter: mCherry (pCS4076), ligand present: no
Method in brief: as §1

Row | Variant | normalized RNA/DNA level with ligand (log10) [1] | normalized RNA/DNA level without ligand (log10) [2]
1 | GCUGUCACCGGUGUAUUACCCUAGUGGUCGACCGGUCUGAUGAGUCUCGGGAGAGACGAAACAGC [CGGGAG] | 1.87 ± 0.04 | 1.63 ± 0.021
2 | GCUGUCACCGGUGUAUUACCCUAGUGGUCGACCGGUCUGAUGAGUCUCCAUAAAGACGAAACAGC [CCAUAA] | 1.914 ± 0.01 | 1.8 ± 0.031
3 | GCUGUCACCGGUGUAUUACCCUAGUGGUCGACCGGUCUGAUGAGUCUCCCUGGAGACGAAACAGC [CCCUGG] | 1.91 ± 0.028 | 1.8 ± 0.05
4 | GCUGUCACCGGUGUAUUACCCUAGUGGUCGACCGGUCUGAUGAGUCUCUGCUUAGACGAAACAGC [CUGCUU] | 1.962 ± 0.011 | 1.9272 ± 0.0008
5 | GCUGUCACCGGUGUAUUACCCUAGUGGUCGACCGGUCUGAUGAGUCUCUGAACAGACGAAACAGC [CUGAAC] | 1.9 ± 0.066 | 1.76 ± 0.019
6 | GCUGUCACCGGUGUAUUACCCUAGUGGUCGACCGGUCUGAUGAGUCUGAGCCGAGACGAAACAGC [GAGCCG] | 1.85 ± 0.034 | 1.44 ± 0.021
7 | GCUGUCACCGGUGUAUUACCCUAGUGGUCGACCGGUCUGAUGAGUCUCUGUGUAGACGAAACAGC [CUGUGU] | 1.95 ± 0.047 | 1.898 ± 0.0077
8 | GCUGUCACCGGUGUAUUACCCUAGUGGUCGACCGGUCUGAUGAGUCUCGAUCAAGACGAAACAGC [CGAUCA] | 1.9299 ± 0.00072 | 1.7 ± 0.048
9 | GCUGUCACCGGUGUAUUACCCUAGUGGUCGACCGGUCUGAUGAGUCUGGGCGAAGACGAAACAGC [GGGCGA] | 1.99 ± 0.057 | 1.88 ± 0.038
10 | GCUGUCACCGGUGUAUUACCCUAGUGGUCGACCGGUCUGAUGAGUCUGCGCGUAGACGAAACAGC [GCGCGU] | 1.92 ± 0.064 | 1.58 ± 0.12
11 | GCUGUCACCGGUGUAUUACCCUAGUGGUCGACCGGUCUGAUGAGUCUUUUGCUAGACGAAACAGC [UUUGCU] | 1.95 ± 0.023 | 1.95 ± 0.022
12 | GCUGUCACCGGUGUAUUACCCUAGUGGUCGACCGGUCUGAUGAGUCUCACCAAAGACGAAACAGC [CACCAA] | 1.9 ± 0.032 | 1.79 ± 0.082
13 | GCUGUCACCGGUGUAUUACCCUAGUGGUCGACCGGUCUGAUGAGUCUCCUACCAGACGAAACAGC [CCUACC] | 1.937 ± 0.0065 | 1.86 ± 0.049
14 | GCUGUCACCGGUGUAUUACCCUAGUGGUCGACCGGUCUGAUGAGUCUAACCCUAGACGAAACAGC [AACCCU] | 1.932 ± 0.0028 | 1.8887 ± 0.0015
15 | GCUGUCACCGGUGUAUUACCCUAGUGGUCGACCGGUCUGAUGAGUCUUGCGGGAGACGAAACAGC [UGCGGG] | 1.98 ± 0.11 | 1.754 ± 0.0048
16 | GCUGUCACCGGUGUAUUACCCUAGUGGUCGACCGGUCUGAUGAGUCUCGUUGCAGACGAAACAGC [CGUUGC] | 1.96 ± 0.1 | 1.91 ± 0.088
17 | GCUGUCACCGGUGUAUUACCCUAGUGGUCGACCGGUCUGAUGAGUCUCUCUAAAGACGAAACAGC [CUCUAA] | 1.93 ± 0.051 | 1.8 ± 0.054
18 | GCUGUCACCGGUGUAUUACCCUAGUGGUCGACCGGUCUGAUGAGUCUUCCUCAAGACGAAACAGC [UCCUCA] | 2 ± 0.033 | 1.88 ± 0.048
19 | GCUGUCACCGGUGUAUUACCCUAGUGGUCGACCGGUCUGAUGAGUCUAUUUUCAGACGAAACAGC [AUUUUC] | 1.97 ± 0.056 | 1.925 ± 0.003
20 | GCUGUCACCGGUGUAUUACCCUAGUGGUCGACCGGUCUGAUGAGUCUUCACAGAGACGAAACAGC [UCACAG] | 1.87 ± 0.033 | 1.56 ± 0.056
21 | GCUGUCACCGGUGUAUUACCCUAGUGGUCGACCGGUCUGAUGAGUCUACUAUCAGACGAAACAGC [ACUAUC] | 1.98 ± 0.03 | 1.95 ± 0.046
